This is an account of results in publication PMC11364024, “Binding structures of SERF1a with NT17-polyQ peptides of huntingtin exon 1 revealed by SEC-SWAXS, NMR and molecular simulation” (IUCrJ, 2024).

Data set [1] deals with the molecule itself. The experiment in a line: SEC-SWAXS (size-exclusion column with small- and wide-angle X-ray scattering, UV-Vis absorption and dRI); single-component samples (SERF1a 4.1 mg/ml; Htt-1 10 mg/ml injected, diluted ca. 2-4 fold on the column); sodium phosphate buffer pH 7.4; 283 K; aggregation number from zero-angle intensity I0 and the concentration from optical data.

The target of data set [2] is T1, human small EDRK-rich factor 1a (SERF1a) (human).
T1 construct: source: purified from the human SERF1a gene as reported previously (Tsai et al., 2023)
T1 chain: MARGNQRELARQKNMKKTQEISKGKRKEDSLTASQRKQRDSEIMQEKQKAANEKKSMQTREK
The experiment in a line: SEC-SWAXS (size-exclusion column with small- and wide-angle X-ray scattering, UV-Vis absorption and dRI); mixtures of SERF1a with NT17 or with Htt-3 at 1:2 molar ratio, eluted together; sodium phosphate buffer pH 7.4; 283 K; composition of the complex from I0, UV-Vis absorption at 214 nm and dRI over the elution peak. Conditions: both partners purified.

B1: Htt-1 (NT17-polyQ peptide of 33 amino acids with four leucines in the polyQ region) (peptide)
peptide: MATLEKLMKAFESLKSFLQQLQQQLQQLQQQYK
notes: huntingtin exon 1: NT17 followed by a 14-residue polyQ region in which four leucines replace the residues of position a/d to enhance alpha-helix formation; two C-terminal residues added after the polyQ region; not of huntingtin; source: synthetic peptide (peptide synthesis core, Genomics Research Center, Academia Sinica)
Regarding B1, the “stoichiometry N” value in data set [1] is 2.

B2: Htt-3 (NT17-polyQ peptide of 33 amino acids with four prolines in the polyQ region) (peptide)
peptide: MATLEKLMKAFESLKSFPQQPQQQPQQPQQQYK
notes: huntingtin exon 1: NT17 followed by a 14-residue polyQ region in which the positions a/d are substituted by four prolines to suppress alpha-helix formation; two C-terminal residues added after the polyQ region; not of huntingtin; source: synthetic peptide (peptide synthesis core, Genomics Research Center, Academia Sinica)
B2: in data set [2], the “stoichiometry N” value is approximately 1 Htt-3 per SERF1a.

B3: NT17 (the N-terminal first 17 amino acids of the Httex1 protein) (peptide)
peptide: MATLEKLMKAFESLKSF
notes: huntingtin exon 1 (Httex1), N-terminal first 17 amino acids; also called NT17 fragment; source: synthetic peptide (peptide synthesis core, Genomics Research Center, Academia Sinica)
With B3, the “stoichiometry N” value in data set [2] was approximately 2 NT17 per SERF1a.
